Results as given in US20240084023A1 (NGM BIOPHARMACEUTICALS, published 2024).
Numbering of substitutions follows the chain as printed.

Assays:
[1] = molecular target: T1, soluble human GCGR extracellular domain (human, UniProt P47871 26-136, limits assumed); test: Biacore SPR, captured antibody, soluble human GCGR extracellular domain as analyte
T1 construct: also called soluble GCGR
Method: In some experiments, supernatants were screened for binding to human GCGR using a Biacore SPR system. Briefly, anti-mouse Fc antibody (Sigma-Aldrich) was immobilized on all four flow cells of a CM5 chip using amine coupling reagents (GE Healthcare LifeSciences). Hybridoma supernatants were diluted three-fold with PBS-P buffer (PBS containing 0.005% P20) and injected for 30 seconds overflow cells 2, 3 and 4 to capture the test antibodies and using flow cell 1 as a reference. The next step was an injection of soluble human GCGR extracellular domain (100 nM in PBS-P buffer) at a flow rate of 50 μL/min and monitoring of the binding kinetics at 25° C. Kinetic data were collected over time and fit using the simultaneous global fit equation to yield affinity constants (KD values) for each antibody.

[2] = molecular target: full-length human GCGR on CHO cells (human, UniProt P47871 26-477); test: cell-based or functional assay
[3] = molecular target: T1, soluble human GCGR extracellular domain; test: Octet epitope binning; antibody in solution on GCGR ECD held by immobilized 1G7 (competitor)
Method: (§1) KD values for exemplary antibodies were derived using ForteBio software. Exemplary antibodies 6B5, 13G19, 14E9, 14F4, 4F8, 1G7, l A8, I H7, 1A2, 1B4, 1C1, 1H2, 1C3, and 1D2 were immobilized on biosensor tips. Soluble human GCGR extracellular domain (500 nM) was incubated with the antibodies for 3 minutes. […] The biosensor tips with bound antibody-GCGR complex were then dipped in 61B5, 5B11, or 3H-15 antibody solution and the change in signal measured as a nm shift. If the antibody in solution recognized the same epitope as the antibody immobilized on the chip surface, then <0.1 nm shift in signal (noise level of Octet) would be observed. If the antibody in solution recognized a distinct epitope relative to the immobilized antibody, an increase in signal of >0.15 nm shift would be observed. In the latter scenario, the antibody in solution could bind to the immobilized antibody-GCGR complex (presumably to a different epitope) resulting in the observed increase in signal.

[4] = molecular target: T1, soluble human GCGR extracellular domain; test: Octet epitope binning; antibody in solution on GCGR ECD held by immobilized 1B4 (competitor)
Method: as §1

[5] = molecular target: T1, soluble human GCGR extracellular domain; test: Octet epitope binning; antibody in solution on GCGR ECD held by immobilized 1A2 (competitor)
Method: as §1

[6] = molecular target: T1, soluble human GCGR extracellular domain; test: Octet epitope binning; antibody in solution on GCGR ECD held by immobilized 1C1 (competitor)
Method: as §1

[7] = molecular target: T1, soluble human GCGR extracellular domain; test: Octet epitope binning; antibody in solution on GCGR ECD held by immobilized 1H7 (competitor)
Method: as §1

[8] = molecular target: T1, soluble human GCGR extracellular domain; test: Octet epitope binning; antibody in solution on GCGR ECD held by immobilized 14F4 (competitor)
Method: as §1

[9] = molecular target: T1, soluble human GCGR extracellular domain; test: Octet epitope binning; antibody in solution on GCGR ECD held by immobilized 1C3 (competitor)
Method: as §1

[10] = molecular target: T1, soluble human GCGR extracellular domain; test: Octet epitope binning; antibody in solution on GCGR ECD held by immobilized 1D2 (competitor)
Method: as §1

[11] = molecular target: T1, soluble human GCGR extracellular domain; test: Octet epitope binning; antibody in solution on GCGR ECD held by immobilized 4F8 (competitor)
Method: as §1

[12] = molecular target: T1, soluble human GCGR extracellular domain; test: Octet epitope binning; antibody in solution on GCGR ECD held by immobilized 1A8 (competitor)
Method: as §1

[13] = molecular target: T1, soluble human GCGR extracellular domain; test: Octet epitope binning; antibody in solution on GCGR ECD held by immobilized 13G9 (competitor)
Method: as §1

[14] = molecular target: T1, soluble human GCGR extracellular domain; test: Octet epitope binning; antibody in solution on GCGR ECD held by immobilized 1H2 (competitor)
Method: as §1

[15] = molecular target: T1, soluble human GCGR extracellular domain; test: Octet epitope binning; antibody in solution on GCGR ECD held by immobilized 6B5 (competitor)
Method: as §1

[16] = molecular target: T1, soluble human GCGR extracellular domain; test: Octet epitope binning; antibody in solution on GCGR ECD held by immobilized 14E9 (competitor)
Method: as §1

T1 sequence (P47871 26-136 limits assumed): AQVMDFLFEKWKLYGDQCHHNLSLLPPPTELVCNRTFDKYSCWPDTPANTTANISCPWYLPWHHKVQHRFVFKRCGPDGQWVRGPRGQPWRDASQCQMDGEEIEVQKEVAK
Sequence of full-length human GCGR on CHO cells (P47871 26-477): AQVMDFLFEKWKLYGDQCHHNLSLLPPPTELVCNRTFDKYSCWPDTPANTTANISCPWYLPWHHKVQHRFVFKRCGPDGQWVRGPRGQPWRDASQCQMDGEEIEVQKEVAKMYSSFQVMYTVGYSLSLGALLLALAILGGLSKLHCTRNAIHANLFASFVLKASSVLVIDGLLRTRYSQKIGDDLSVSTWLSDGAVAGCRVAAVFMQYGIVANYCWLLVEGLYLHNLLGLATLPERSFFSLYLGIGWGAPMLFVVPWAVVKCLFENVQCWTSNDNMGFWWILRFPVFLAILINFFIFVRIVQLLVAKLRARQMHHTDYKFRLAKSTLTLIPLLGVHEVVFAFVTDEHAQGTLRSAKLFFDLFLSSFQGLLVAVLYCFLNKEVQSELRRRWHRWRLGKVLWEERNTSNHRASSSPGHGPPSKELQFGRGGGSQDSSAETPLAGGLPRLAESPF

B1: anti-GCGR antibody 1H2 (antibody, V domains shown)
VH: QVQLQQPGAELVKPGASVKMSCKVSGYTFTSYWITWVKQRPGQGLEWIGDIHPGGGDTNYNKKFKSKATLTVDTSSSTAYMQLSSLTSEDSAVYHCTSDDNYVGFTYWGQGTLVTVSA
VL: DVLMTQTPLSLPVSLGDQASISCRSSQTIIHSDGNTYLEWYLQKPGQSPILLIYKVSNRFSGVPDRFSGSGSGTDFTLKISRVEAEDLGVYYCFQGSHVPWTFGGGTKLEIK
notes: mouse hybridoma monoclonal antibody
- Kd [1]: 3.7 nM
- cAMP assay-1 IC50 [2]: 3.78 nM

B2: anti-GCGR antibody 13G9 (antibody, V domains shown)
VH: QVQLQQSGAELVRPGTSVKISCKASGYTFTNYWLGWVKQRPGHGLEWIGDIYPGGDYNNYNGKFKGKATLTADTSSSTAYIQLSSLTSEDSAVYFCVRSDDGYSWGQGTTLTVSS
VL: B1 VL with T28S, I30V, H31D, D33Y, L42Q, I50T, S61A, V99I, L109V
notes: mouse hybridoma monoclonal antibody; also called 13G19
- Kd [1]: 0.25 nM
- cAMP assay-1 IC50 [2]: 7.22 nM
- cAMP assay-3 IC50 [2]: 0.99 nM

B3: anti-GCGR antibody 1C1 (antibody, V domains shown)
VH: EVQLQQSGPELVKPGATVKMSCKASGYTFTRNVIHWVKQKPGQGLEWIGYINPYNDGAKYNAKFKGKATVTSDKSSSTAYMELSSLTSEDSAVYYCARWGNYEDFAMDYWGQGTSVTVSS
VL: NIVLTQSPPSLAVSLGQRATISCRASESVDIYGNSYMHWYQQKPGQPPKLLIYLASNLESGVPARFSGSGSRTEFSLTIDPVEAGDAATYYCQQNNEDPFTFGGGTKLEIK
notes: as for B1
- Kd [1]: 1.9 nM
- cAMP assay-2 IC50 [2]: 14.3 nM

B4: anti-GCGR antibody 6B5 (antibody, V domains shown)
VH: QVQLQQSGTELVRPGTSVKISCKASGFTFTNHWLGWVKQRPGHGLEWIGDIYPGGYYINYNEKFKGKATLTADTSSSTAYMQLSSLTSEDSAVYFCARHTNYGSDYWGQGTTLTVSS
VL: DVLMTQIPLSLPVSLGDQASISCRSSQSIVDSYGNTFLEWYLQKPGQSPKLLIYKVSNRLSGVPDRFSGTGAGTDFTLKISRVEAEDLGIYYCFQGSHVPWTFGGGTKLEIK
notes: mouse hybridoma monoclonal antibody; also called 61B5
- Shift on Octet by Antibody in Solution (nm) [3]: < 0.05 nm
- Kd [1]: 0.22 nM
- Shift on Octet by Antibody in Solution (nm) [4]: < 0.05 nm
- Shift on Octet by Antibody in Solution (nm) [5]: < 0.05 nm
- Shift on Octet by Antibody in Solution (nm) [6]: < 0.05 nm
- Shift on Octet by Antibody in Solution (nm) [7]: < 0.05 nm
- Shift on Octet by Antibody in Solution (nm) [8]: < 0.05 nm
- Shift on Octet by Antibody in Solution (nm) [9]: < 0.05 nm
- Shift on Octet by Antibody in Solution (nm) [10]: < 0.05 nm
- Shift on Octet by Antibody in Solution (nm) [11]: < 0.05 nm
- Shift on Octet by Antibody in Solution (nm) [12]: < 0.05 nm
- cAMP assay-1 IC50 [2]: 6.42 nM
- cAMP assay-2 IC50 [2]: 12.3 nM
- cAMP assay-3 IC50 [2]: 2.07 nM
- Shift on Octet by Antibody in Solution (nm) [13]: < 0.05 nm
- Shift on Octet by Antibody in Solution (nm) [14]: < 0.05 nm
- Shift on Octet by Antibody in Solution (nm) [15]: < 0.05 nm
- Shift on Octet by Antibody in Solution (nm) [16]: < 0.05 nm

B5: anti-GCGR antibody 4F8 (antibody, V domains shown)
VH: QVQLQQSGAELVRPGTSVTMSCKAAGYTFSNYWIGWVKQRPGHGLEWIGDIYPGGFYDNYNDKFKGKATLTTDTSSSTAYMQLSSLTSEDSAIYYCTRSGGLPGAGFTYWGQGTLVTVSA
VL: B1 VL with T28H, I30V, H31Y, I50K, K79E
notes: as for B1
- Kd [1]: 0.5 nM
- cAMP assay-3 IC50 [2]: 3.84 nM

B6: anti-GCGR antibody 14F4 (antibody, V domains shown)
VH: QVQLQQSGAELVRPGTSVNMSCKATGYTFTNYWIGWVKQRPGHGLEWIGDIFPGGFYSNYNEKFKGKATLTTDTSSSTGYMQLSSLTSEDSAIYYCARIWDRGFDYWGQGTTLTVSS
VL: B4 VL with I7S, F37Y, L60F, T70S, A72S, L88R, I90L, W101Y
notes: mouse hybridoma monoclonal antibody; also called 141F4
- Kd [1]: 0.57 nM
- cAMP assay-1 IC50 [2]: 16 nM
- cAMP assay-3 IC50 [2]: 6.48 nM

B7: anti-GCGR antibody 14E9 (antibody, V domains shown)
VH: QVQLQQSGAELVRPGTSVKMSCKAAGYTFTNYWIGWVKQRPGHGLEWIGDISPGNYYTNYNAKFKDKVSLTADTSSSTAYMQLSSLTSEDSAIYYCARYDEFAYWGQGTLVTVSA
VL: B1 VL with P12S, T28S, I30V, I50K
notes: mouse hybridoma monoclonal antibody; also called 13E9
- Kd [1]: 0.8 nM
- cAMP assay-1 IC50 [2]: 24.6 nM
- cAMP assay-3 IC50 [2]: 1.32 nM

B8: anti-GCGR antibody 1C3 (antibody, V domains shown)
VH: EVQLQQSGPELVKPGASVKMSCKASGYTFTSSVMHWVKQKPGQALEWIGYINPYNDGTKYNENFKGKATLTSDRSSTTAYMELSSLTSEDSAVYYCVTGAGYDRGPMAMDYWGQGTSVTVSS
VL: NIVLTQSPASLAVSLGQRATISCRASESVDSYGDSFVHWYQQKPGQPPKLLIYFASNLESGVPARFSGSGSRTDFTLTIDPVEADDTATYYCQQNNEVPFTFGSGTKLELK
notes: as for B1
- Kd [1]: 1.4 nM
- cAMP assay-1 IC50 [2]: 6.42 nM
- cAMP assay-2 IC50 [2]: 13.6 nM

B9: anti-GCGR antibody 5B11 (antibody, V domains shown)
VH: QVQLQQSGAELVKPGASVKLSCKASGNTFTSHWMHWVKQRPGQGLEWIGMSHPNSGSSNYSGKFKSKATLTVDRSSSTAYMQLNSLTSEDSAVYYCARTDYDYDGDYWGQGTTLTVSS
VL: DVVLTQTPLSLPVNIGDQASISCKSSKSLLNSDGLTYLDWYLQKPGQSPQLLIYLVSNRFSGVPDRFSGSGSGTDFTLKISRVEADDLGVYYCFQSNFLPLTFGAGTKLELK
notes: as for B1
- Shift on Octet by Antibody in Solution (nm) [3]: < 0.05 nm
- Kd [1]: 1.2 nM
- Shift on Octet by Antibody in Solution (nm) [4]: < 0.05 nm
- Shift on Octet by Antibody in Solution (nm) [5]: < 0.05 nm
- Shift on Octet by Antibody in Solution (nm) [6]: < 0.05 nm
- Shift on Octet by Antibody in Solution (nm) [7]: < 0.05 nm
- Shift on Octet by Antibody in Solution (nm) [8]: < 0.05 nm
- Shift on Octet by Antibody in Solution (nm) [9]: < 0.05 nm
- Shift on Octet by Antibody in Solution (nm) [10]: < 0.05 nm
- Shift on Octet by Antibody in Solution (nm) [11]: < 0.05 nm
- Shift on Octet by Antibody in Solution (nm) [12]: < 0.05 nm
- cAMP assay-1 IC50 [2]: 7.22 nM
- Shift on Octet by Antibody in Solution (nm) [13]: < 0.05 nm
- Shift on Octet by Antibody in Solution (nm) [14]: < 0.05 nm
- Shift on Octet by Antibody in Solution (nm) [15]: < 0.05 nm
- Shift on Octet by Antibody in Solution (nm) [16]: < 0.05 nm
